Where a chain is given by its changes, count along the chain named. Where no end group is shown, it is not given here.
B1: L2/H2: humanized anti-BKB2R mAb, light chain L2 (SEQ ID NO:9), heavy chain H2 (SEQ ID NO:4) (antibody, V domains shown)
VH: EVQLVESGGGLVQPGGSLRLSCVASGFTFSDYWMSWVRQAPGKGLEWVAEIRLKSDNYATHYAESVKGRFTISRDDAKNSLYLQMNSLRAEDTAVYYCTRDYYAMEYWGQGTLVTVSS
VL: DIVMTQSPLSLPVTPGEPASISCRSSQTIVHSNGKTYLEWYLQKPGQSPQLLIYKVSNRFSGVPDRFSGSGSGTEFTLKISRVEAEDVGVYYCFQASHVPYTFGQGTKLEIK
modifications: Humanized H2 Heavy Chain Variable Region VH; Humanized L2 Light Chain Variable Region VL
B2: H39/L38: humanized anti-BKB2R mAb, heavy chain H39 (SEQ ID NO:7), light chain L38 (SEQ ID NO:11) (antibody, V domains shown)
VH: EVKLVESGGGLVQPGGSLRLSCAVSGFTFSDYWMDWVRQAPGKGLEWVAEIRLKSDNYATHYAASVKGRFTISRDDSKSRLYLQMNSLKTEDTAVYYCTRDYYAMEYWGQGTTVTVSS
VL: B1 VL with S7T, P15S, E39D, F60A, E75D, Q105G, L109V
modifications: Humanized H39 Heavy Chain Variable Region VH; Humanized L38 Light Chain Variable Region VL
B3: H39/L39: humanized anti-BKB2R mAb, heavy chain H39 (SEQ ID NO:7), light chain L39 (SEQ ID NO:12) (antibody, V domains shown)
VH: B2 VH
VL: B1 VL with I2V, S7T, P12S, E17Q, R24K, E75D
modifications: Humanized H39 Heavy Chain Variable Region VH; Humanized L39 Light Chain Region VL
B4: H37/L37: humanized anti-BKB2R mAb, heavy chain H37 (SEQ ID NO:5), light chain L37 (SEQ ID NO:10) (antibody, V domains shown)
VH: B2 VH with K3Q, V24A, A49G, S79N, R80S
VL: B1 VL with S7T, P12S, E17Q, R24K, E39Y, N58S, E75D
modifications: Humanized H37 Heavy Chain Variable Region VH; Humanized L37 Light Chain Variable Region VL
B5: H37/L38: humanized anti-BKB2R mAb, heavy chain H37 (SEQ ID NO:5), light chain L38 (SEQ ID NO:11) (antibody, V domains shown)
VH: B2 VH with K3Q, V24A, A49G, S79N, R80S
VL: B1 VL with S7T, P15S, E39D, F60A, E75D, Q105G, L109V
modifications: Humanized H37 Heavy Chain Variable Region VH; Humanized L38 Light Chain Variable Region VL
B6: H37/L39: humanized anti-BKB2R mAb, heavy chain H37 (SEQ ID NO:5), light chain L39 (SEQ ID NO:12) (antibody, V domains shown)
VH: B2 VH with K3Q, V24A, A49G, S79N, R80S
VL: B1 VL with I2V, S7T, P12S, E17Q, R24K, E75D
modifications: Humanized H37 Heavy Chain Variable Region VH; Humanized L39 Light Chain Region VL
B7: H38/L37: humanized anti-BKB2R mAb, heavy chain H38 (SEQ ID NO:6), light chain L37 (SEQ ID NO:10) (antibody, V domains shown)
VH: B1 VH with V5L, R19K, V23A, A24V, A49S, E64D, A77S, S80T
VL: B1 VL with S7T, P12S, E17Q, R24K, E39Y, N58S, E75D
modifications: Humanized H38 Heavy Chain Variable Region VH; Humanized L37 Light Chain Variable Region VL
B8: humanized anti-BKB2R antibody L1/H2 (antibody, human IgG2, kappa, V domains shown)
VH: B1 VH
VL: DIVMTQSPLSLPVTPGEPASISCRSSQTIVHSNGKTYLEWYLQKPGQSPQLLIYKVSNRFSGVPDRFSGSGSGTDFTLKISRVEAEDVGVYYCFQASHVPYTFGQGTKLEIKR
B9: humanized anti-BKB2R antibody L2/H1 (antibody, human IgG2, kappa, V domains shown)
VH: B1 VH with V23A, D76N
VL: B8 VL with D75E
B10: humanized anti-BKB2R antibody L2/H2 (antibody, human IgG2, kappa, V domains shown)
VH: B1 VH
VL: B8 VL with D75E
notes: also called H2/L2
B11: chimeric/humanized anti-BKB2R antibody L1/HC (antibody, human IgG2, V domains shown)
VH: EVKLEESGGGLVQPGGSMKLSCVVSGFTFSDYWMSWVRHSPEMGLEWVAEIRLKSDNYATHYAESVKGRFTISRDDSKSRLYLQINSLRGEDTGIYYCTRDYYAMEYWGQGTSVTVSS
VL: B8 VL
notes: not shown: human IgG2 constant region
B12: chimeric/humanized anti-BKB2R antibody L2/HC (antibody, human IgG2, V domains shown)
VH: B11 VH
VL: B8 VL with D75E
notes: as for B11

Target: T1, human BKB2R-derived epitope peptide, SE ID NO:73 (Homo sapiens, UniProt P30411)
T1 construct: purchased Biosyn, Lewisville, Tex
Assay: ForteBio Octet binding kinetics to the BKB2R epitope peptide
Settings: Conc. 250 nM
Description: Proteins corresponding to all combinations of humanized or chimeric (5F12G1 VH and VL on human IgG2 backbone) antibodies were tested for binding to the human BKB2R-derived epitope peptide, SE ID NO:73.
A ForteBio (Menlo Park, Calif., USA) Octet® platform was used to analyze the binding affinities and binding characteristics of the humanized monoclonal antibodies to the peptide epitope (SEQ ID NO:73) and compared to the original mouse monoclonal 5F12G1. This platform employed label-free technology for measuring biomolecular interactions by optical analysis of the interference pattern of white light reflected from two surfaces: a layer of immobilized protein on the biosensor tip, and an internal reference layer. Any change in the number of molecules bound to the biosensor tip caused a shift in the interference pattern that was measured in real-time. Binding specificity, and rates of association and dissociation were monitored.
(§1) For the Octet study, antibodies were analyzed by kinetic titration of the antibodies. Antibodies were prepared in kinetic buffer (0.001 M phosphate buffered saline (NaCl 0.0138 M; KCl-0.00027 M); pH 7.4, at 25° C., 0.1 mg/ml BSA, 0.002% Tween and 0.005% Sodium Azide) followed by 1:2 serial dilutions.
(§2) Sensor Prep: Streptavidin biosensors (FortéBio Inc, Menlo Park, Calif.) were coated by incubation in a solution containing a peptide ([…]-PEG-biotin) (Biosyn, Lewisville, Tex.) at 50 μg/ml (300 seconds/1000 rpm shaking). 96 well half-volume plates were used for testing. 90 μl of sample was plated per well. Sensors were allowed to equilibrate to baseline in kinetic buffer (60 seconds/1000 rpm). The sensors were then placed into the various antibody dilutions to allow binding (association) to the probe for 500 seconds/1000 rpm, and measurements were taken. The sensors were then moved into kinetic buffer without antibody for dissociation (500 seconds/1000 rpm), and measurements were taken. Octet system software calculated kinetic constants for on rate/off rate/affinity.
[…] […] Each concentration was tested twice. The HC and LC represented the mouse original 5F12G1 VH and VL sequences.

| Molecule | kdis [s⁻¹] | kon [M⁻¹ s⁻¹] |
| --- | --- | --- |
| B1 | 0.0359 | 1.76e+06 |

Same assay, conditions: Conc. 500 nM

| Molecule | kdis [s⁻¹] | kon [M⁻¹ s⁻¹] |
| --- | --- | --- |
| B1 | 0.0223 | 992000 |
| B2 | 4.9 | 6.44e+06 |
| B3 | 1.26 | 729000 |
| B4 | 1.18 | 1.55e+06 |
| B5 | 2.08 | 9.47e+06 |
| B6 | 1.98 | 1.11e+06 |
| B7 | 29.4 | 9.44e+06 |

Target: T2, human BKB2R-derived epitope peptide (SEQ ID NO:73), PEG-biotin (human, also: PEG-biotin, site not given here)
T2 construct: also called immunogenic human BKB2R peptide fragment
T2 peptide: KEYSDEGHNVTAC
Assay: BLI (Octet), peptide-PEG-biotin on streptavidin sensor, antibody 250 nM
Settings: not given
Description: as §1, §2
(§3) For test humanized monoclonal antibodies, the highest concentration used was 500 nM followed by 1:2 dilutions. Each concentration was tested twice. The HC and LC represented the mouse original 5F12G1 VH and VL sequences.

| Molecule | Kd [nM] | Max Response | koff [s⁻¹] | kon [M⁻¹ s⁻¹] |
| --- | --- | --- | --- | --- |
| B8 | 2050 | 0.174 | 0.719 | 350000 |
| B9 | 20.3 | 0.18 | 0.00438 | 216000 |
| B10 | 20.4 | 0.171 | 0.0359 | 1.76e+06 |
| B11 | 3040 | 0.148 | 0.728 | 239000 |
| B12 | 337 | 0.204 | 0.732 | 2.17e+06 |

Target: T2, human BKB2R-derived epitope peptide …
Assay: BLI (Octet), peptide-PEG-biotin on streptavidin sensor, antibody 500 nM
Settings: not given
Description: as §1, §2, §3

| Molecule | Kd [nM] | Max Response | koff [s⁻¹] | kon [M⁻¹ s⁻¹] |
| --- | --- | --- | --- | --- |
| B8 | 403 | 0.161 | 0.976 | 2.43e+06 |
| B9 | 4.19 | 0.172 | 0.00507 | 1.21e+06 |
| B10 | 22.5 | 0.171 | 0.0223 | 992000 |
| B11 | 3980 | 0.194 | 2.16 | 543000 |
| B12 | 4530 | 0.143 | 0.655 | 145000 |

Reference: US20140017242A1, “ANTI-BRADYKININ B2 RECEPTOR (BKB2R) MONOCLONAL ANTIBODY” (Diamedica, Inc., priority 2010, published 2014)
